Experimental data taken from patent US20230083670A1 (IMMUNEONCO BIOPHARMACEUTICALS SHANGHAI, published 2023).
One block for each binder: values may come before it.

Tests used:
[1] = target: T1, PD-L1 on CHO cells expressing human PD-L1 (CHO-PDL1) (human, UniProt Q9NZQ7 19-290); assay: flow cytometry competition; blocks Biotin-hPD1-mFc (1 µg/ml) on CD47- PD-L1+ CHO cells
T1 construct: whole, on cells; Species is stated as human for the CHO-PDL1 cells; also called CHO-PD-L1 cells; Raji-PD-L1 cells
Description: Cells were incubated at 4° C. for 45 minutes, washed with PBS, and then further incubated at 4° C. for another 45 minutes with PE-conjugated mouse Anti-human CD279 (Cat #557946, BD BioScience).

[2] = target: T2, CD47 on Jurkat cells (UniProt Q08722 19-323, limits assumed); assay: flow cytometry competition; blocks FITC-SIRPα-Fc (80 nM) on PD-L1- CD47+ Raji cells
T2 construct: whole, on cells; also called CD47-expressing Raji cells
Description: The mixtures were added to a 96-well plate containing PD-L1⁻ or PD-L1⁺ CD47-expressing Raji cells, and the plate was incubated at 4° C. for 45 minutes.

[3] = target: T1, PD-L1 on CHO cells expressing human …; assay: flow cytometry on CHO-PD-L1 cells, FITC anti-human IgG-Fc
Description: (§1) Cells were washed with cold PBS twice, and then incubated with FITC-conjugated secondary antibody against human IgG-Fc (Cat #F9512, Sigma) for 45 min. Cells were washed twice and re-suspended in […] PBS. Then, the cells were subject to FACS analysis using a flow cytometer (Merck Millipore, Guava® easyCyte 5HT).

[4] = target: T2, CD47 on Jurkat cells; assay: flow cytometry on Jurkat cells, FITC anti-human IgG-Fc
Description: as §1

T1 sequence (Q9NZQ7 19-290): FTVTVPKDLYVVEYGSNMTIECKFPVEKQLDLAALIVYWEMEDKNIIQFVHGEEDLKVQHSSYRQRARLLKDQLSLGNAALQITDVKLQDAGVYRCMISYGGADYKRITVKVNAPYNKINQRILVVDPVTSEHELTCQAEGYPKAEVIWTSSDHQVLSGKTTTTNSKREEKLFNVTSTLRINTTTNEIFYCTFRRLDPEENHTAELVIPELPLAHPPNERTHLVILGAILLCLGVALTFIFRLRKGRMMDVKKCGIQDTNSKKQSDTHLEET

IC50 [1]: < 1 nM
IC50 [2]: 140 nM
EC50 [3]: 0.11 nM
EC50 [4]: 0.7 nM
B1: IMM2521 (bispecific antibody, human IgG1, kappa)
heavy: QVQLVQSGAEVKKPGASVKVSCKASGYTFTSNWMHWVRQAPGQGLEWMGMIHPNSGSSNYNEKFKSRVTMTRDTSTSTVYMELSSLRSEDTAVYYCARSYYGSSPYYFDYWGQGTLVTVSSASTKGPSVFPLAPSSKSTSGGTAALGCLVKDYFPEPVTVSWNSGALTSGVHTFPAVLQSSGLYSLSSVVTVPSSSLGTQTYICNVNHKPSNTKVDKRVEPKSCDKTHTCPPCPAPELLGGPSVFLFPPKPKDTLMISRTPEVTCVVVDVSHEDPEVKFNWYVDGVEVHNAKTKPREEQYNATYRVVSVLTVLHQDWLNGKEYKCKVSNKALPAPIAATISKAKGQPREPQVYTLPPSREEMTKNQVSLTCLVKGFYPSDIAVEWESNGQPENNYKTTPPVLDSDGSFFLYSKLTVDKSRWQQGNVFSCSVMHEALHNHYTQKSLSLSPGK
light: not shown
notes: SIRPαD1 mutant linked through the linker to the N-terminus of each light chain of IMM2515; also called recombinant fusion protein IMM2521; PD-L1×CD47 bispecific

IC50 [1]: < 1 nM
B2: IMM2515 (antibody, human IgG1, kappa, V domains shown)
VH: QVQLVQSGAEVKKPGASVKVSCKASGYTFTSNWMHWVRQAPGQGLEWMGMIHPNSGSSNYNEKFKSRVTMTRDTSTSTVYMELSSLRSEDTAVYYCARSYYGSSPYYFDYWGQGTLVTVSS
VL: DIQMTQSPSSLSASVGDRVTITCRASQDIINYLNWYQQKPGKAPKLLIYYTSRLHSGVPSRFSGSGSGTDFTFTISSLQPEDIATYYCQQGDTLPWTFGQGTKVEIKR
notes: also called monoclonal anti-PD-L1 antibody; monospecific anti-PD-L1 antibody IMM2515
